Results reported in patent US20230364248A1 (Novo Nordisk, published 2023).

Biological target: full length MIC-1 receptor (hGFRAL) and its full signaling co-receptor hRET51, stably expressed in BHK21 cells (human, UniProt Q6UXV0 19-394; P07949 29-1114)
Experiment: cell-based or functional assay

Sequence of full length MIC-1 receptor (hGFRAL) and its full signaling co-receptor hRET51, stably expressed in BHK21 cells (Q6UXV0 19-394, chain 1 of 2): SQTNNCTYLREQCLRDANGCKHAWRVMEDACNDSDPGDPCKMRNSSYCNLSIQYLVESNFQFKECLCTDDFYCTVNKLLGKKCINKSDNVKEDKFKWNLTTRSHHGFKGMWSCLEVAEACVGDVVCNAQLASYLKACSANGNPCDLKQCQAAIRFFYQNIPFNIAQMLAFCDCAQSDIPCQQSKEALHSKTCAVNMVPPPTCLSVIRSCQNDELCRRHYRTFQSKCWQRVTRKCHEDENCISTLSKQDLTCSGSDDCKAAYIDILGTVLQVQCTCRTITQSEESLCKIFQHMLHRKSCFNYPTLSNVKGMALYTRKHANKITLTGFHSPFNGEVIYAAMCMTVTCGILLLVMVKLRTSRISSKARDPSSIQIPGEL
Sequence of full length MIC-1 receptor (hGFRAL) and its full signaling co-receptor hRET51, stably expressed in BHK21 cells (P07949 29-1114, chain 2 of 2): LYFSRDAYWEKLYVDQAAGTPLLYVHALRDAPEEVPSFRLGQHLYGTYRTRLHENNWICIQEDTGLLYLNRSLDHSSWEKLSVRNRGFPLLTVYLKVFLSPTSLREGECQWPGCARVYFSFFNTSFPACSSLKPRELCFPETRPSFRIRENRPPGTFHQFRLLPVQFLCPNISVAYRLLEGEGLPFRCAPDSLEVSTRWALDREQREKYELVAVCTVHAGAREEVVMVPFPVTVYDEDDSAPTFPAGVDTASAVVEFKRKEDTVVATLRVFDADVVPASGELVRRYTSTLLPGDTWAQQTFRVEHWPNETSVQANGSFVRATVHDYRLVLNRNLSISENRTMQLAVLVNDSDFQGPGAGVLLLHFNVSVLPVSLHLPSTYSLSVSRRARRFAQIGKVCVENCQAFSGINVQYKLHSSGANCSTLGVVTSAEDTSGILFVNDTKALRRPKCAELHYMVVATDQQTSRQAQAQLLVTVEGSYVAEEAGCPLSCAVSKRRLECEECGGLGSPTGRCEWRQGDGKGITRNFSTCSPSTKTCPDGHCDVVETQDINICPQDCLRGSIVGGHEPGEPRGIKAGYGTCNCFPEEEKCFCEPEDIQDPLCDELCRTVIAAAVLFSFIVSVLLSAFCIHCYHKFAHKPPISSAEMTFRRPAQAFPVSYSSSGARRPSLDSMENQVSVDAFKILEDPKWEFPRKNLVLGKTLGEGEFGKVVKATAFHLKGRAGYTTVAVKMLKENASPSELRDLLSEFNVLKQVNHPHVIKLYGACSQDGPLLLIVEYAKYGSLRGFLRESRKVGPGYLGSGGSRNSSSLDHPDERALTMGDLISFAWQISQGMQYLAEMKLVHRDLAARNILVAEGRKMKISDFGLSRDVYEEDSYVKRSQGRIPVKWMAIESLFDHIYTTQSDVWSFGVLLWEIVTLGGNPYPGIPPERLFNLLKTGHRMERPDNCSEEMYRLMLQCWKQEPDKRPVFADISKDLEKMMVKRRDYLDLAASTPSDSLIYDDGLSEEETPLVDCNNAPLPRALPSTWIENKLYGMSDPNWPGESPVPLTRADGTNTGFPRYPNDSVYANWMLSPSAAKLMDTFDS

B1: MIC-1 (SEQ ID NO: 1) (ligand)
chain: ARNGDHCPLGPGRCCRLHTVRASLEDLGWADWVLSPREVQVTMCIGACPSQFRAANMHAQIKTSLHRLKPDTVPAPCCVPASYNPMVLIQKTDTGVSLQTYDDLLAKDCHCI
Binder B1 has an Emax of 100%.
